The nature of this series: label from the status in PepcDB records.
On to “MIGQAILLGCIAFIAQSEYALGTSLLSRPIVTGLFVGIVLGDVKTGVIMGATLELAFIGSFSVGASIPPDVVTGGILGTAFAITAGAGTETALVLGLPIATLTLILKNIYLGLLIPIMSQKADQYAEEGAYKGVERMHLLAGFGLSFMLALIVTISFAVGSNTIKGLLDLIPEFIQHGLSVATGIIPALGFAMLARLLINKQVAPYFFLGFVLMAYFKLPVTGVAILGAITAVIVVNIMNYAKGKNETIQTTSGEVIDDDEDF”, for which the protein production entry is “failed”.

For “MIGVITSLTGGAILRNPAVLLIPLIYLVGRRSRDLTYLLFVMYTIITFQFVEVKELISYETIKTTLMAIIPSLLALKESIEGKKLQKTDLYYLPLFFLGVLRDYFYYLGLIIAGLLHIENFHSILIPAAVFSLIISPALVGELIELPGEYISIIMAGSLLVIYLVFQPTRR”, the protein production entry is on record as “failed”.

For the sequence “MIHADPESAMPAAYAATPFAQRLGLTLPVVQAPMAGVSTPALAAAVSNAGGLGSLGLGAMNADAARQAIALTREQTTRPFNVNLFCHAPATADAAREARWLQYLAPRFAEFDAQPPATLREVYTSFLADDDMFDMLLAERPEVVSLHFGLPPASRIAALRQAGIYLMATATDMREAARIAAAGVDAIVAQGIEAGGHRGMFDPAARDEQLGTLALTRLLARRFDAPVIAAGGIMDGAGVAAVLALGAQAAQLGTAFISCPESSADMPHRHALLDQAEVATTLTRAISGRPARSIANRYTELGAAADCPPTPDYPIAYDAGKALHAAARARGDASYAAQWAGQAAALSRGVPAATLMRQLQAELNDCIGRLAR”, the protein production result is given as “failed”.

As to “MIHDDQKPSSSLDLQEIRIQIDSVDQQIQELINRRATLAEAVAKAKFASEENPLFYRPEREAQVLRKVMERNQGPLSDVTMARLFREIMSACLALEAPQSIAFLGPEGTFTQSAALKHFGKDAVVRPLPTIDEVFREVEAGSAHYGVVPVENSSEGVVNHTLDCFRTSQLNVIGEVELRIHHQFLVSHNTRKDSIKQIYAHQQALAQCRQWLDTHYPGVERVALSSNAEAARRIRNEWHSAAIASDIAASMYDLEIFHSNIEDNPENTTRFLVIGREKIPQSGNDKTSLLISAHDRAGALLEILAPFAKHKISLTSIETRPALPEKWAYVFFIDLEGHIEQENVAAAIDDIRPLVKELRILGSYPAAVL”, the protein production entry is “failed”.

As for “MIIEYLQLVGLGLVTMLPVANPLTSTTLLLALGSGFTRDERNRQIGRATVYVAAIILASFYAGNAIISSFGISIPGLRIAGGLIVAYIGFTMLFPATSQNEAQAQVEMAPDDPHIQVPGAAHTGPRPRDISFVPLALPGTAGPGTIALIISSASTLHSHGGITLIHHFAVITVTLLLALLFWACLRSAERVMRMLGQSGIDAISRVMGFLLICMGVQFIIDGVFELIRHPPGA”, the protein production entry is recorded as “failed”.

As to “MIIIELNKRQEHIIQIVKDHGPITGESIAAQLGLTRATLRPDLAILTMAGYLEARPRVGYFYTGKTGGQLLSEAVKKIKVQDYQSRPVVIDKNVSVYDAICTMFLEDVGTLFVVDQSTLLVGVVSRKDLLRASLGKQDLTSLPVNIIMTRMPNIAMCRREDSLYDIAMELIERQIDAMPVVKDTKQGLEVVGRITKTNITRAFVNLVNNE”, the protein production result is “failed”.

“MIILDNLEQFKVVYRDGRKWNRCVEAIENIGNLRDGIMYSIGDSLVYMIEDGIAKNTETFVGNRRYFDIHYYLEGRETVEVASKSELESVQAYSDETDREHLNGNGQKHQLCEGQVAVFDNTKAYKFHGDNRVRKVVLKVTIEDGYFLNK”: the protein production entry is reported as “failed”.

Consider “MIILGQALYQKDQFAEAAKCLEQAASKLLDTSPTEVEEVDLLIVASQWAGVSNIRQGKTSEGITHLERVANMKEPDDPKSKAHYLDALVLYSSAIFNEGRREEAAKYLRRVVAYDPSFSELLKQCEEDDTIPTSSSSNSTSKTS”, for which the protein production entry is “failed”.

Consider “MIINDPVKITGIVDILIIIIFTSLGFRGFLRGFIKEISGFAEVFVLILLLYKKTEEFRRFVEPIIELSYIQALLVFFLLIHIGFLILQSLIESIISQLKLLFFNRILGLVLGLLEAFGIIAIVVYIIHSQQIFKPEYFLKESKLLDYLNPGINYLFKISKTK”, for which the protein production entry is reported as “failed”.

As for “MIIPGIAAAETCPDGYKNVSVCKAEKMVEKEDVFLLDVRTPAEFNKTHIEGTILIPVKNVPAQDPVELSSDELLEVRINEVPADEKILVYCKSGARSAAACSLLVSNGYRKVYNMRGGIDCWLARGCTVDVNADKADELLGTGEFFLLDVRTPAEFNAGYIEGAILIPLKNVPKEDPVELPPEKLLAQCLCEIPENKPILVYCKSGTRSDAARDLLVDSGYRHVYNLEGGILTWKAEGYPTVCPAI”, the protein production result is reported as “failed”.

For “MIIRIKHYGEVKIEDSKNLLLNLIENRIGIDNICNGKGTCGKCKVRFRQGVPEATSADLRYLSVEELEEGVRLACQVKPQKGMEIDVTLSNSFDRKLEHHHHHH”, the protein production result is reported as “not failed”.

“MIISELVHNNLRGGNKTHNLELKLPVKPVIGGSSSEDDAIVADASSLMHGDNPGLEFRHKELEAPLIPQRTHSLLYQPQKKVKPEATDSYVSQLTAEADDHLQSPNRDSLYTSMPNLRDSPYPESSPDMAEDLSPSRRSENEDIYYKSMPNLGAGRHLHMCYQISRGNSDGYIIPINKEGCIPEGDVREGQMQLVTSL”: the protein production entry is on record as “failed”.

“MIITIARQCGCMGDQIGKALAEKYFIPFYDKDAVCRLAKEKGLYEKYPYFYGEMPLDMLLYADTMAGDDTTDNGKTPRKAMADIIGNENCVVVGRCGNNAFRHREDVISVFLTGNKEKRVELIEKKHNVSPKKAAKIVEDTDLRRRSYHNYYTGEEWGNAEYYDICIDVSKVGEDGALRLIEAYINETGVL”: the protein production entry was “failed”.

With “MIIVMSRRAAEADIAGVVAFIRSRGLREHISHGDERTVIGAIGDDRVLSVREVQTLPEVEKAVRILDTWKTVSRENRAEDSRVAAKGVAFGGGETVRIAAEPSVWSNADAVFLDPFFTSANLYDTLSADEGRGRCRRLAEQAASAHGAGKPVLVRVRNVRHVEAALNAGADILYLGGGLMSDLAVLNEAGSLNIPLVLCKDKHHSAEDWLNAAEYVVSRGNRHLILGESGVLGHTKGHPYRLDVESIVKVRQISHLPVIANITGLWSRDMPQEILYGLAKAAGACGIVGTCFEKAGG”, the protein production result is given as “failed”.

In the case of “MIIVTGATGKLGRRIVERLLERVPADRVGVSVRDPRKAQDLADRGVRVRQGSFDDPASLVHAFEGAEQLLLVSLDRTGQECVSGHRAAIDAAVKAGVGRILYTSQMGAAHDSRFQACRDHAQTEDLLRATGLPWTALRNGFYASSALQFLESARHTGDIALPADGPVAWTGHDDLAEATAAILAEEHRFEGPTPPLTGPAALDFDTVAEIASQTTGRPFTRTVVPDDAFREQVLAHGAPAPIGNLMLSIFAAARNGEFTAVDSTLAELIGREPATFRTQLEHAWAE”, the protein production entry is “failed”.

For the sequence “MIKEQSFEWLLEGCHRIADVAVAYYPNYAYACSAVKALRRSIAEHACLLKDLTDQGYTARTAHLTPVQIGILLSYWGMPDHVKDMTVKNPYLLVSKKYAK”, the protein production result is “failed”.

For the sequence “MIKFMSIASGSSGNCYYLSNGNQALLIDAGIPLRSISKALKDHQLPIEGNVVGVLVTHDHADHIRTIGCLGEKFHLPVFATERVHNGINSSRYMDHLPLLSRRNILQEETFRLAGFDITAFPIPHDATENVGYHITAPGFSFTLCTDVGHITDTISHYASKADYLVMEANYDCEMLLSGPYPEFLKERVSGPNGHLSNQETGDFLARTFHPGMKHVWLCHLSKDNNHPDLCWKSIEYRLFSEGIRVGKDMELTVLKRTSPSSLYTLLEDLEHHHHHH”, the protein production result was “not failed”.

“MIKGNKMASFSQVSFSIPQRVIHWAMALLIFFNLLFPDAMAHAYRLMRRGETLTPDQISSANIHAYVGFAILLLAVLRLCLRFFQGVPPHPAEEPRASQIAAKAAHFTFYVLFFILPLSGIAAYYFGIATAGELHSGPFKAVMWVLIAGHVAAVLVHQFYWRTNVLKRMTHG”: the protein production result is “failed”.

In the case of “MIKGNNGNRGSSSSGYSADLLVCFPSRTHLALTPKPICSPSRPSDSSTNRRPHHRRQLSKLSGGGGGGHGSPVLWAKQASSKNMGGDEIAEPTSPKVTCAGQIKVRPSKCGGRGKNWQSVMEEIERIHDNRSQSKFFGLKKDVMGFLTCLRNIKFDFRCFGDFRHADVTSDDDEEEDDDDDEEEEVVEGEEEENSKTVFSKWFMVLQEEQNNKDDDKNNNKCDEKRDLEDTETEPAVPPPNALLLMRCRSAPAKSWLEERMKVKTEQEKREEQKEEKETEDQETSMKTKKKDLRSLMEEEKMELVLMRYDTEFYRLSSDIAKETWVVGGIQDPLSRSRSWKN”, the protein production entry is “failed”.

On to “MIKHYLFMAVSQVFFSFFLVLFFISSIVLLISIASVTLVIKVSFLDLVQLFLYSLPGTIFFILPITFFAACALGLSRLSYDHELLVFFSLGVSPKKMTKVFAPLSLLVSAILLVFSLILIPTSKSTYYGFLRQKKDKIDINIRAGEFGQKLGDWLVYVDKTKNNSYDNLVLFSNKSLSQESFILAQKGNINNQNGVFELNLYNGHAYFTQGDKMRKVDFEELHLRNKLKSFNSNDAAYLQGTDYLGYWKKAFGKNANKNQKRRFSQAILVSLFPLASVFLIPLFGIANPRFKTNWSYFYVLGAVGVYFLMVHVISTDLFLMTFFFPFIWAFASYLLFRKFILKRY”, for which the protein production result is on record as “failed”.

For “MIKILETESSLGWGGQENRTARLINHLDPTRFRVYVATPKDSELYKRRQEIRAEFFPVEMRKSYSLKAIWQLYKIIKKERIDIVSTHSGKDAWLGVIAARLAGVKAIRTRHLQTPISSPLSYNLHDKVVCVSDFVKEDLAKRGVQKGRLCTIHTGVDVSKYAPHREGILRRELGLREEEILVGIVAVLRGAKGHKLLLEAFAKLSSSTARLVIIGDGPQRENIALIVEQLNLQERVVMLGHREDVAKIMPDLDIFVLSSSMEALGTAILEASACGVAVLGSNVGGIPECVRENGQLFEAGDSDSLVKNLQALINDTSKRKERGAKGRVLVEEEFSVEAMVRKTEGLYREIITPQKILIVSNTALGDTILSTPLFRETRLALPKAHITALLNPVNAMLFETNPYLDKIELYGGRWRGFLGAWWKLWRRGFDVALLGHSNDPQITPLCLLLGISKIIKIPNHKNPWQRFHHNPPASPIEDQYAVLTRLLTLKYIGIESSNTRLELFLKEEWTTEAKEILRPFGQKKLIGIQMGASNRSRQWFVERWIELAKRIIERDEEVVIVFVGSKNELEEISLVAQALPQDRVFISAGRLSLGAAAALIGELGLLFTPDTGPLHIAVALRVKTISLFAVANPKNSLPDYDQSLHRYIKVDRCCEPCVGKRCAYQKCMEAIGVDEVYEEYKKLQE”, the protein production result is reported as “failed”.

As to “MIKLSSITAHILDIWHRRNSRSYIAHLRSLGIRIGDGCIFRDPLTTRIDVSRPALVSIGSNVDMNTYFQILTHDWASFVFRNKYHDFVNSSGRVEIGSNIYIGTNVIVLRGVTIGDNCVIGAGSVVTHDIPANSVAVGAPCRVVCSLEHHHHHH”, the protein production result is recorded as “not failed”.

Regarding “MIKMIVVLRLGHRPERDKRVTTHVALTARAFGADGIIIASEEDEKVKESVEDVVKRWGGPFFIEFNRNWRKVMKEFTGVKVHLTMYGLHVDDVIEELKEKLKKGEDFMIIVGAEKVPREVYELADYNVAIGNQPHSEVAALAVLLDRLLEGKGLKKEFKGAKIKIVPQARGKKVVEVQGYAEQDKAEGKATPGKNWENSGFTGDNP”, the protein production entry is “not failed”.

Turning to “MIKPSNYQPPYTITPAIVNLVAEIGEIIGRYTVLAEQNLTPRLRRENRIRTIQASLAIENNTLTLEQVTAVIDGKRVLGHPREIQEVRNAFATYEAMEDWDASVEGDLLAAHELLMRGLVDETGRYRSGGVGIFRGEQLVHMAPPADRVPKLMADLLDWLENTNEHPLVASCIFHYEFEFIHPFADGNGRMGRLWQTLILRNWKPLLAYLPVETVIRDRQEDYYRVLAVADSQADATPFVEFMLGALRDAVREAVSTDHVGDQVTDQVAALIRAIGGGELSSNDLMQALGLSHRPTFRNNYLNPAMEDEWIERTQPDSPRSPTQRYRLTGKGQRWLQHHADE”, the protein production entry is “not failed”.
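Also: failed if final PepcDB status was selected cloned or expressed and not failed if soluble or beyond.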
